Tested on: HeLa Kyoto
Assay: thermal stability score vs G1/S (z-score of summed log2 fold changes over temperatures); higher = more thermally stable than in G1/S
[1] = cell cycle stage: early G1 (4.5 h after nocodazole release)
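Also: synchronized HeLa Kyoto cells, proteins quantified by TMT10plex mass spectrometry, three biological replicates, mitosis taken 0.5 h after nocodazole release, G1/S directly after double thymidine block.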

Row | Substance | thermal stability score [1] | thermal stability score (cell cycle stage: mitosis)
1 | MKLVFLVLLFLGALGLCLAGRRRSVQWCAVSQPEATKCFQWQRNMRKVRGPPVSCIKRDSPIQCIQAIAENRADAVTLDGGFIYEAGLAPYKLRPVAAEVYGTERQPRTHYYAVAVVKKGGSFQLNELQGLKSCHTGLRRTAGWNVPIGTLRPFLNWTGPPEPIEAAVARFFSASCVPGADKGQFPNLCRLCAGTGENKCAFSSQEPYFSYSGAFKCLRDGAGDVAFIRESTVFEDLSDEAERDEYELLCPDNTRKPVDKFKDCHLARVPSHAVVARSVNGKEDAIWNLLRQAQEKFGKDKSPKFQLFGSPSGQKDLLFKDSAIGFSRVPPRIDSGLYLGSGYFTAIQNLRKSEEEVAARRARVVWCAVGEQELRKCNQWSGLSEGSVTCSSASTTEDCIALVLKGEADAMSLDGGYVYTAGKCGLVPVLAENYKSQQSSDPDPNCVDRPVEGYLAVAVVRRSDTSLTWNSVKGKKSCHTAVDRTAGWNIPMGLLFNQTGSCKFDEYFSQSCAPGSDPRSNLCALCIGDEQGENKCVPNSNERYYGYTGAFRCLAENAGDVAFVKDVTVLQNTDGNNNEAWAKDLKLADFALLCLDGKRKPVTEARSCHLAMAPNHAVVSRMDKVERLKQVLLHQQAKFGRNGSDCPDKFCLFQSETKNLLFNDNTECLARLHGKTTYEKYLGPQYVAGITNLKKCSTSPLLEACEFLRK [LTF] | -3.21 | -1.19
2 | MNSMNPMKPALPPAPHGDGSFAYESVPWQQSATQPAGSLSVVTTVWGVGNATQSQVLGNPMGPAGSPSGSSMMPGVAGGSSALTSPQCLGQQAFAEGGANKGYVQQGVYSRGGYPGAPGFTTGYAGGPGGLGLPSHAARPSTDFTQAAAAAAVAAAAATATATATATVAALQEKQSQELSQYGAMGAGQSFNSQFLQHGGPRGPSVPAGMNPTGIGGVMGPSGLSPLAMNPTRAAGMTPLYAGQRLPQHGYPGPPQAQPLPRQGVKRTYSEVYPGQQYLQGGQYAPSTAQFAPSPGQPPAPSPSYPGHRLPLQQGMTQSLSVPGPTGLHYKPTEQFNGQGASFNGGSVSYSQPGLSGPTRSIPGYPSSPLPGNPTPPMTPSSSVPYMSPNQEVKSPFLPDLKPNLNSLHSSPSGSGPCDELRLTFPVRDGVVLEPFRLQHNLAVSNHVFQLRDSVYKTLIMRPDLELQFKCYHHEDRQMNTNWPASVQVSVNATPLTIERGDNKTSHKPLYLKHVCQPGRNTIQITVTACCCSHLFVLQLVHRPSVRSVLQGLLKKRLLPAEHCITKIKRNFSSGTIPGTPGPNGEDGVEQTAIKVSLKCPITFRRIQLPARGHDCRHIQCFDLESYLQLNCERGTWRCPVCNKTALLEGLEVDQYMLGILIYIQNSDYEEITIDPTCSWKPVPVKPDMHIKEEPDGPALKRCRTVSPAHVLMPSVMEMIAALGPGAAPFAPLQPPSVPAPSDYPGQGSSFLGPGTFPESFPPTTPSTPTLAEFTPGPPPISYQSDIPSSLLTSEKSTACLPSQMAPAGHLDPTHNPGTPGLHTSNLGAPPGPQLHHSNPPPASRQSLGQASLGPTGELAFSPATGVMGPPSMSGAGEAPEPALDLLPELTNPDELLSYLGPPDLPTNNNDDLLSLFENN [ZMIZ2] | 0.174 | 0.237
3 | TTC3 | 0.321 | -0.39
4 | MALSRVCWARSAVWGSAVTPGHFVTRRLQLGRSGLAWGAPRSSKLHLSPKADVKNLMSYVVTKTKAINGKYHRFLGRHFPRFYVLYTIFMKGLQMLWADAKKARRIKTNMWKHNIKFHQLPYREMEHLRQFRQDVTKCLFLGIISIPPFANYLVFLLMYLFPRQLLIRHFWTPKQQTDFLDIYHAFRKQSHPEIISYLEKVIPLISDAGLRWRLTDLCTKIQRGTHPAIHDILALRECFSNHPLGMNQLQALHVKALSRAMLLTSYLPPPLLRHRLKTHTTVIHQLDKALAKLGIGQLTAQEVKSACYLRGLNSTHIGEDRCRTWLGEWLQISCSLKEAELSLLLHNVVLLSTNYLGTRR [LETMD1] | -0.886 | -0.884
5 | MAGVSACIKYSMFTFNFLFWLCGILILALAIWVRVSNDSQAIFGSEDVGSSSYVAVDILIAVGAIIMILGFLGCCGAIKESRCMLLLFFIGLLLILLLQVATGILGAVFKSKSDRIVNETLYENTKLLSATGESEKQFQEAIIVFQEEFKCCGLVNGAADWGNNFQHYPELCACLDKQRPCQSYNGKQVYKETCISFIKDFLAKNLIIVIGISFGLAVIEILGLVFSMVLYCQIGNK [TSPAN8] | 1.86 | -1.57
6 | MNRESFAAGERLVSPAYVRQGCEARRSHEHLIRLLLEKGKCPENGWDESTLELFLHELAIMDSNNFLGNCGVGEREGRVASALVARRHYRFIHGIGRSGDISAVQPKAAGSSLLNKITNSLVLDIIKLAGVHTVANCFVVPMATGMSLTLCFLTLRHKRPKAKYIIWPRIDQKSCFKSMITAGFEPVVIENVLEGDELRTDLKAVEAKVQELGPDCILCIHSTTSCFAPRVPDRLEELAVICANYDIPHIVNNAYGVQSSKCMHLIQQGARVGRIDAFVQSLDKNFMVPVGGAIIAGFNDSFIQEISKMYPGRASASPSLDVLITLLSLGSNGYKKLLKERKEMFSYLSNQIKKLSEAYNERLLHTPHNPISLAMTLKTLDEHRDKAVTQLGSMLFTRQVSGARVVPLGSMQTVSGYTFRGFMSHTNNYPCAYLNAASAIGMKMQDVDLFIKRLDRCLKAVRKERSKESDDNYDKTEDVDIEEMALKLDNVLLDTYQDASS [SEPSECS] | -1.52 | -1.62
7 | MSVPGPYQAATGPSSAPSAPPSYEETVAVNSYYPTPPAPMPGPTTGLVTGPDGKGMNPPSYYTQPAPIPNNNPITVQTVYVQHPITFLDRPIQMCCPSCNKMIVSQLSYNAGALTWLSCGSLCLLGCIAGCCFIPFCVDALQDVDHYCPNCRALLGTYKRL [LITAF] | -0.592 | -0.943
8 | MKAIIHLTLLALLSVNTATNQGNSADAVTTTETATSGPTVAAADTTETNFPETASTTANTPSFPTATSPAPPIISTHSSSTIPTPAPPIISTHSSSTIPIPTAADSESTTNVNSLATSDIITASSPNDGLITMVPSETQSNNEMSPTTEDNQSSGPPTGTALLETSTLNSTGPSNPCQDDPCADNSLCVKLHNTSFCLCLEGYYYNSSTCKKGKVFPGKISVTVSETFDPEEKHSMAYQDLHSEITSLFKDVFGTSVYGQTVILTVSTSLSPRSEMRADDKFVNVTIVTILAETTSDNEKTVTEKINKAIRSSSSNFLNYDLTLRCDYYGCNQTADDCLNGLACDCKSDLQRPNPQSPFCVASSLKCPDACNAQHKQCLIKKSGGAPECACVPGYQEDANGNCQKCAFGYSGLDCKDKFQLILTIVGTIAGIVILSMIIALIVTARSNNKTKHIEEENLIDEDFQNLKLRSTGFTNLGAEGSVFPKVRITASRDSQMQNPYSRHSSMPRPDY [MUC13] | -3.46 | -1.12
9 | MVRFKHRYLLCELVSDDPRCRLSLDDRVLSSLVRDTIARVHGTFGAAACSIGFAVRYLNAYTGIVLLRCRKEFYQLVWSALPFITYLENKGHRYPCFFNTLHVGGTIRTCQKFLIQYNRRQLLILLQNCTDEGEREAIQKSVTRSCLLEEEEESGEEAAEAME [POP5] | -0.00794 | -2.6
10 | MGQCGITSSKTVLVFLNLIFWGAAGILCYVGAYVFITYDDYDHFFEDVYTLIPAVVIIAVGALLFIIGLIGCCATIRESRCGLATFVIILLLVFVTEVVVVVLGYVYRAKVENEVDRSIQKVYKTYNGTNPDAASRAIDYVQRQLHCCGIHNYSDWENTDWFKETKNQSVPLSCCRETASNCNGSLAHPSDLYAEGCEALVVKKLQEIMMHVIWAALAFAAIQLLGMLCACIVLCRRSRDPAYELLITGGTYA [TSPAN3] | -0.556 | -0.785
11 | MAQRAVWLISHEPGTPLCGTVRFSRRYPTVEKRARVFNGASYVPVPEDGPFLKALLFELRLLDDDKDFVESRDSCSRINKTSIYGLLIGGEELWPVVAFLKNDMIYACVPLVEQTLSPRPPLISVSGVSQGFEFLFGIQDFLYSGQKNDSELNTKLSQLPDLLLQACPFGTLLDANLQNSLDNTNFASVTQPQKQPAWKTGTYKGKPQVSISITEKVKSMQYDKQGIADTWQVVGTVTCKCDLEGIMPNVTISLSLPTNGSPLQDILVHPCVTSLDSAILTSSSIDAMDDSAFSGPYKFPFTPPLESFNLCFYTSQVPVPPILGFYQMKEEEVQLRITINLKLHESVKNNFEFCEAHIPFYNRGPITHLEYKTSFGQLEVFREKSLLIWIIGQKFPKSMEISLSGTVTFGAKSHEKQPFDPICTGETAYLKLHFRILDYTLTGCYADQHSVQVFASGKPKISAHRKLISSDYYIWNSKAPAPVTYGSLLL [AP5M1] | 2.33e-19 | -1.74e-18

— the supplement of paper PMC5998384
